From patent US20260167699A1 (Chugai, published 2026)

Molecular target: T1, FcγRIIIa (human, UniProt P08637 17-208)
T1 construct: extracellular domain; also called 3a; FcγRIIIa extracellular domain
Assay: SPR (Biacore);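 note: antibody variants captured on an SPR sensor chip, with FcγRIIIa passed over as analyte in HBS-EP+ buffer at 25 °C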

T1 sequence (P08637 other isoform, or with tags, fused parts or gaps): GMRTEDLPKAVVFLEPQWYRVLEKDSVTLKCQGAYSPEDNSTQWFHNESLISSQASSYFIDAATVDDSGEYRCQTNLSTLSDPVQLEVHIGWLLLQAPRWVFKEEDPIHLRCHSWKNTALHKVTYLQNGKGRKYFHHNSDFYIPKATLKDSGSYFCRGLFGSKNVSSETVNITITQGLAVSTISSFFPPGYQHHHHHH

| Binder | He/Con 3a |
| --- | --- |
| GpH7-A5/GpH7-B3 variant Q295_03V/GpL16-k0 (antibody, human IgG1, kappa, copies: 1 + 1 + 2) heavy 1: not shown heavy 2: not shown light: DIVMTQSPLSLPVTPGEPASISCQASESLVHSNRNTYLHWYLQKPGQSPQLLIYKVSNRFSGVPDRFSGSGSGTDFTLKISRVEAEDVGVYYCSQNTHVPPTFGQGTKVEIERTVAAPSVFIFPPSDEQLKSGTASVVCLLNNFYPREAKVQWKVDNALQSGNSQESVTEQDSKDSTYSLSSTLTLSKADYEKHKVYACEVTHQGLSSPVTKSFNRGEC | 86.2 % of GpH7-A5/GpH7-B3/GpL16-k0 |
| GpH7-A5/GpH7-B3 variant Q295_18N/GpL16-k0 (antibody, human IgG1, kappa, copies: 1 + 1 + 2) heavy 1: not shown heavy 2: not shown light: DIVMTQSPLSLPVTPGEPASISCQASESLVHSNRNTYLHWYLQKPGQSPQLLIYKVSNRFSGVPDRFSGSGSGTDFTLKISRVEAEDVGVYYCSQNTHVPPTFGQGTKVEIERTVAAPSVFIFPPSDEQLKSGTASVVCLLNNFYPREAKVQWKVDNALQSGNSQESVTEQDSKDSTYSLSSTLTLSKADYEKHKVYACEVTHQGLSSPVTKSFNRGEC | 85.7 % of GpH7-A5/GpH7-B3/GpL16-k0 |
| GpH7-A5/GpH7-B3 variant S239_08L/GpL16-k0 (antibody, human IgG1, kappa, copies: 1 + 1 + 2) heavy 1: not shown heavy 2: not shown light: DIVMTQSPLSLPVTPGEPASISCQASESLVHSNRNTYLHWYLQKPGQSPQLLIYKVSNRFSGVPDRFSGSGSGTDFTLKISRVEAEDVGVYYCSQNTHVPPTFGQGTKVEIERTVAAPSVFIFPPSDEQLKSGTASVVCLLNNFYPREAKVQWKVDNALQSGNSQESVTEQDSKDSTYSLSSTLTLSKADYEKHKVYACEVTHQGLSSPVTKSFNRGEC | 90 % of GpH7-A5/GpH7-B3/GpL16-k0 |
| GpH7-A5/GpH7-B3 variant Q295_11K/GpL16-k0 (antibody, human IgG1, kappa, copies: 1 + 1 + 2) heavy 1: not shown heavy 2: not shown light: DIVMTQSPLSLPVTPGEPASISCQASESLVHSNRNTYLHWYLQKPGQSPQLLIYKVSNRFSGVPDRFSGSGSGTDFTLKISRVEAEDVGVYYCSQNTHVPPTFGQGTKVEIERTVAAPSVFIFPPSDEQLKSGTASVVCLLNNFYPREAKVQWKVDNALQSGNSQESVTEQDSKDSTYSLSSTLTLSKADYEKHKVYACEVTHQGLSSPVTKSFNRGEC | 81.8 % of GpH7-A5/GpH7-B3/GpL16-k0 |
| GpH7-A5/GpH7-B3 variant Q295_14T/GpL16-k0 (antibody, human IgG1, kappa, copies: 1 + 1 + 2) heavy 1: not shown heavy 2: not shown light: DIVMTQSPLSLPVTPGEPASISCQASESLVHSNRNTYLHWYLQKPGQSPQLLIYKVSNRFSGVPDRFSGSGSGTDFTLKISRVEAEDVGVYYCSQNTHVPPTFGQGTKVEIERTVAAPSVFIFPPSDEQLKSGTASVVCLLNNFYPREAKVQWKVDNALQSGNSQESVTEQDSKDSTYSLSSTLTLSKADYEKHKVYACEVTHQGLSSPVTKSFNRGEC | 120 % of GpH7-A5/GpH7-B3/GpL16-k0 |
| GpH7-A5/GpH7-B3 variant Q295_04F/GpL16-k0 (antibody, human IgG1, kappa, copies: 1 + 1 + 2) heavy 1: not shown heavy 2: not shown light: DIVMTQSPLSLPVTPGEPASISCQASESLVHSNRNTYLHWYLQKPGQSPQLLIYKVSNRFSGVPDRFSGSGSGTDFTLKISRVEAEDVGVYYCSQNTHVPPTFGQGTKVEIERTVAAPSVFIFPPSDEQLKSGTASVVCLLNNFYPREAKVQWKVDNALQSGNSQESVTEQDSKDSTYSLSSTLTLSKADYEKHKVYACEVTHQGLSSPVTKSFNRGEC | 75.1 % of GpH7-A5/GpH7-B3/GpL16-k0 |
| GpH7-A5/GpH7-B3 variant S239_06M/GpL16-k0 (antibody, human IgG1, kappa, copies: 1 + 1 + 2) heavy 1: not shown heavy 2: not shown light: DIVMTQSPLSLPVTPGEPASISCQASESLVHSNRNTYLHWYLQKPGQSPQLLIYKVSNRFSGVPDRFSGSGSGTDFTLKISRVEAEDVGVYYCSQNTHVPPTFGQGTKVEIERTVAAPSVFIFPPSDEQLKSGTASVVCLLNNFYPREAKVQWKVDNALQSGNSQESVTEQDSKDSTYSLSSTLTLSKADYEKHKVYACEVTHQGLSSPVTKSFNRGEC | 73.9 % of GpH7-A5/GpH7-B3/GpL16-k0 |
| GpH7-A5/GpH7-B3 variant Q295_10E/GpL16-k0 (antibody, human IgG1, kappa, copies: 1 + 1 + 2) heavy 1: not shown heavy 2: not shown light: DIVMTQSPLSLPVTPGEPASISCQASESLVHSNRNTYLHWYLQKPGQSPQLLIYKVSNRFSGVPDRFSGSGSGTDFTLKISRVEAEDVGVYYCSQNTHVPPTFGQGTKVEIERTVAAPSVFIFPPSDEQLKSGTASVVCLLNNFYPREAKVQWKVDNALQSGNSQESVTEQDSKDSTYSLSSTLTLSKADYEKHKVYACEVTHQGLSSPVTKSFNRGEC | 105 % of GpH7-A5/GpH7-B3/GpL16-k0 |
| GpH7-A5/GpH7-B3 variant Q295_15Y/GpL16-k0 (antibody, human IgG1, kappa, copies: 1 + 1 + 2) heavy 1: not shown heavy 2: not shown light: DIVMTQSPLSLPVTPGEPASISCQASESLVHSNRNTYLHWYLQKPGQSPQLLIYKVSNRFSGVPDRFSGSGSGTDFTLKISRVEAEDVGVYYCSQNTHVPPTFGQGTKVEIERTVAAPSVFIFPPSDEQLKSGTASVVCLLNNFYPREAKVQWKVDNALQSGNSQESVTEQDSKDSTYSLSSTLTLSKADYEKHKVYACEVTHQGLSSPVTKSFNRGEC | 81.5 % of GpH7-A5/GpH7-B3/GpL16-k0 |
| GpH7-A5/GpH7-B3 variant Q295_09D/GpL16-k0 (antibody, human IgG1, kappa, copies: 1 + 1 + 2) heavy 1: not shown heavy 2: not shown light: DIVMTQSPLSLPVTPGEPASISCQASESLVHSNRNTYLHWYLQKPGQSPQLLIYKVSNRFSGVPDRFSGSGSGTDFTLKISRVEAEDVGVYYCSQNTHVPPTFGQGTKVEIERTVAAPSVFIFPPSDEQLKSGTASVVCLLNNFYPREAKVQWKVDNALQSGNSQESVTEQDSKDSTYSLSSTLTLSKADYEKHKVYACEVTHQGLSSPVTKSFNRGEC | 85.6 % of GpH7-A5/GpH7-B3/GpL16-k0 |
| GpH7-A5/GpH7-B3 variant Q295_08L/GpL16-k0 (antibody, human IgG1, kappa, copies: 1 + 1 + 2) heavy 1: not shown heavy 2: not shown light: DIVMTQSPLSLPVTPGEPASISCQASESLVHSNRNTYLHWYLQKPGQSPQLLIYKVSNRFSGVPDRFSGSGSGTDFTLKISRVEAEDVGVYYCSQNTHVPPTFGQGTKVEIERTVAAPSVFIFPPSDEQLKSGTASVVCLLNNFYPREAKVQWKVDNALQSGNSQESVTEQDSKDSTYSLSSTLTLSKADYEKHKVYACEVTHQGLSSPVTKSFNRGEC | 120 % of GpH7-A5/GpH7-B3/GpL16-k0 |
